We go through 21 sequences from the DeepSol protein solubility set.

The data set is described as follows: soluble on expression in E. coli; label from the status in PepcDB or PDB records.
For “MSDTPATRDFGLIDGRAVTGYVLSNRRGTRVCVLDLGGIVQEFSVLADGVRENLVVSFDDAASYADNPFQINKQIGRVAGRIRGAAFDINGRTYRVEANEGRNALHGGSHGLAVTRFNAVAADGRSVVLRSRLQQSADGYPNDLDLDISYRLDEDDRLTVSYRATALGDTVFDPTLHIYWRLDAGLHDAVLHIPQGGHMPADAEKLPVSTVSDDLEVFDFSRPKPLDAAVAALRRETGRAGFDDAYRVPSDIGRPAAVLQAGRRRRISIYSDRNGLVIFTAAPQDFARHDAGVYDALATEAQTLPDSLNWPEFGNIRLNKGDTREATIAYGIESLS”, the “soluble on expression in E. coli” value was “not soluble”. Then “MSDVTGDLAAVSEAKGGSDAARISEVKAWLTSQFEAVGKEVPNFEYTHRSITHLYNLATASQAKSQAATIVANDFRLKASEYRAQAARIREILESAGMSQESLPSNVVSSAQVLANVANLLNIRDTELSRILAQLEDDVVPCESQMENWKTNLEVMAVKEEQYIQQYKKYEMLLNRVGYTPKISHRELVEMAEHRKELDKMTKPVLDTLRSYQDLPPDKALAALAIEDKKRQFTAAEKYLEEVLQSALETNDE”, with “soluble”; and “MSEDELIIIENLKKIYKIKNVEFPALRGINLKIYKGEFLGIAGPSGSGKTTLLDMIGLLDSPTEGKIIIDKKDVTKFDEDKRAIFRRKNIGFVFQSYNLISYLTVLENVELALAAAGYPVSKRKAKAEEILSMIPGMLELKNKKPNELSAGQQQRVAIARALANDPKILIADEPTANLDSKTGEAIVELLRKLNEEKGVTIVMATHDPMMMKYVDRLVYIRDGLIEKEVIQK”, with “soluble”; and “MSEDGLKVSVLASGSTGNVTYIETPERKVLVDAGLSGKKIAGLMDSVGRDISEVDSLFVTHEHSDHIQSVGVLARKYGIDIYANQGTWDAIGGKIGKVPTEQKFIFDPNTTKSLDDLDIESFSVSHDAAEPQFYEFHHAGKSFVILTDTGYVSDRIAGTIRNADGYLFEVNHDTEMLRMGGYPWPLKQRIMGDHGHLSNEDGANALMDVIGNRTKKIYLGHLSLHNNMKELAHLTVTSMMQNHDLAVGHDFEILDTDHKIADPLTLILEHHHHHH”, with “soluble”. In the case of “MSEFTQDTVQKPIDELVTWVKQYDFSLNLPTERLAFLLAIAVLSNERFDEELGEGELHDAFAIVTRLFAESGEASAFRANNAINDLVKQRLLSRFTSEMTEGASIYRLTPLAIGITDYYVRHREFSKLKLSIQLSMVADEMAKAVESAQQGGSVAHWRKNVFGVLKYSVSEIFDRIDLNQRVMDEQQQSVKEQIADLLNKDWRDAINNCEALLSETSATLRELQDTLQAAGDELQTQILDIQECVYGDLELDFIEETLSALQMKLDRITSWGQQSIDLWIGYDRHVHKFIRTAIDMDQNRAFSQRLRQSMNDYFEQPWYLTYADAERLSDLRDETLTLRDEEVTGHVPTEVEYEELQQVNDELAQRIGDMLKVHKEQGAAIDLALVLRDYLASHPRTHHFDLARMVVDQAVRLGYSESDYRAIQPDWTAINDFGAKVQANVIDRYLEHHHHHH”, the “soluble on expression in E. coli” value is reported as “soluble”. The entry for “MSEGSNVLVSIILVNYNGADILPDCLNSIDKFISKDNCEILLVDNASQDNSYELVAQDFPDVKIVRLPKNYGFGAGNNAGAKIAKGKFLLLLNTDTILTTNILPHLIDLMRENPDVGIIGTKLVFPDETFQISFAYTIGIKGEYKSRKLHEYAEDKSKLNSLEQEFNTIKEVDIVVGAALFIRADLFHSVGGFDEKFFIYFEDADLCRRVQNQGYKILYTPQVSLIHIRGHSMKKNANATVLEHHHHHH” is “not soluble”; for “MSEISVTQTLDTLGLRCPEPVMLVRKNIRHLNDGEILLIIADDPATTRDIPSFCQFMDHTLLQCEVEKPPFKYWVKRGK” it is “not soluble”. With “MSEITTLQPSLLWKWFDQICAIPHPSHYEDTLANFIVNWAKEKHFFVERDEVGNVLIRKPATKGMENHTPVVLQAHLDMVPQANEGNPHDFTKDPIQPYIDGEWVKARGTTLGSDNGIGLASTLAVLESNDLAHPPLEVLLTMTEETGMDGAKGLRHNWLQSEILINTDTEEIGEIYIGCAGGINANFEIPVQYETNTFEHSAQITLKGLRGGHSGGDIHTGRANAIKVLARVLAKLSQNQPHFALSEIRGGSIRNAIPREAAAVLAFNGDVKTIESAVENLAVVLKEELAIAEPNFTLFVESAEKAPTVFTAQSTQTVINALNVLPNGVIRNSDVVKNVVESSLSVGVLKTEGNVVKSTILVRSLIESGKYYVTEMLSSLAILANAKVEFSAPYPGWQPVNDSTILDVTRKHYAEVLGEQPVVKVIHAGLECGLLKEHYPNIEMISVGPTIRNAHSPDEKVEIATVQTYWDLLTRVLADIPAK”, the “soluble on expression in E. coli” value is reported as “soluble”.

Consider “MSELGAKYQQLQNELEEFIVARQKLETQLQENKIVNEEFDQLEEDTPVYKLTGNVLLPVEQSEARTNVDKRLEFIETEITRCEKNIRDKQEELEKMRSELIKLNNTAASTGPGR”, for which the “soluble on expression in E. coli” value is given as “soluble”. Then “MSELPPLNTDTIWGILNDQIDDATVMQLVWYYLGYRYDATTEKWDNNAVPSEWRDEYPEPPNFLESRPATMKLTRSIPKQYKQITKEKLGFKGYKIGTFTPRETRRATSANWLLSYLQQQIDQGK”, with “soluble”. Consider “MSELRALIREILVEELAALRAAPAATPACEMVDVHSDEALMAFARDLLGRANDPEFVRCVQSGQHRFTLAPTVAQPPGQRPAPAASFTLVASAPAEAPRFEKALVTERDVAAIPRDQSRIRLARNTRLTPLASDELRRRGIRIERTQK”, for which the “soluble on expression in E. coli” value is “not soluble”. Take “MSEMSVIIEFSIVPMGEVSISKYVAEIIKLVRDRGVKYQLTPMGTILEVNSIEEGLSIIRDAHELMFKLGSKRVLTTIRIDERRDKARTMEDKVKSVMEKVESVRE”: the “soluble on expression in E. coli” value is recorded as “soluble”. For the sequence “MSENLTMSELMDSFELKHFHKGEIVKGKVISVKNDEIIVNIGHFADGVVPRNEISNDKNFDINSINVDDDIFVMVLSGDDGEGNVLLSKKRADAIKVCDDLKEAFEEEKSIKVSLKEVVKGGIVGDFNGLRVFMPASQCAGRRIENLEELVGKTLEVRVIEFNKENRKVVVSRRVIDEEIRNNEKKALWSSIKEGEKRKGKVTRLAKFGAFVDIGGVEGLVHLSDMSWSRVHKPEEVVSVGDEVEVFVSEVDMDRERIALSLKDVIKNPWETLEGLKVGNVVLGKVTNFIKVGAFVEVLPGIEGLVHISEITDENIAKPSDILELGQEVKVKILNIDDENKKMSLSIKDAVETSNEYMQYNDEEEGYSLADLFKGLNLLEHHHHHH”, the “soluble on expression in E. coli” value is “soluble”. Then “MSFDGFFLHHLTKELQEQILWGRIQKVNQPFEQELVLTIRNNRQNYKLLLSAHPVFGRVQLTKTDFQNPQSPNTFTMIMRKYLQGALIENIEQIENDRILEMSISNKNEIGDQIKVTMIIEIMGKHSNIILLDKNEGKITESIKHIGFTQNSYRTILPGSRYLAPPKIQAQNPFTISDETLFEILQTEDLAANNLQKLFQGLGRDTAAELSQRLKTDTFKNFKLFFDSPTSPTLTEKSFTAITFSNSQETFGSLSDLLDYFYQDKAERDRIAQQASDLIHRIQNELEKNKKKLKKQEQELQDTDKAEEFRQKGELLTTYLNQVPNNQDSVELDNYYTGQKVSIPLNKALTPSQNAQRYFKKYQKLKEAVKHLGSLISETKATIQYLESVDNALNQASLSEISEIREELVQTGFVKRRHREKIQKRKK”, with “not soluble”. Then “MSFDREEDQKLKFKTSKKLKVSSTFESMNLKDDLLRGIYSYGFEAPSSIQSRAITQIISGKDVIAQAQSGTGKTATFTIGLLQAIDLRKKDLQALILSPTRELASQIGQVVKNLGDYMNVNAFAITGGKTLKDDLKKMQKHGCQAVSGTPGRVLDMIKKQMLQTRNVQMLVLDEADELLSETLGFKQQIYDIFAKLPKNCQVVVVSATMNKDILEVTRKFMNDPVKILVKRDEISLEGIKQYVVNVDKEEWKFDTLCDIYDSLTITQCVIFCNTKKKVDWLSQRLIQSNFAVVSMHGDMKQEERDKVMNDFRTGHSRVLISTDVWARGIDVQQVSLVINYDLPEIIENYIHRIGRSGRFGRKGVAINFITKADLAKLREIEKFYSIKINPMPANFAELS”, with “soluble”; and “MSFEYNEKVLDHFLNPRNVGVLEDANGVGQCGNPACGDAMLFTIKVNPENDVIEDVRFKTFGCGSAIAVSSMLTEMVKGKPIQYALNLTYKDIFEELGGLPPQKIHCTNLGLETLHVAIKDYLMKQGRVEEASKIPDCYEEEEEQEESKEFEFLSGTLEHHHHHH”, with “soluble”. Then “MSFGKIVVFLVLVLVQLIHCTRFTAPSLDRTIYYRNTPPDPFGHYSFEFQTTNGITTKGAGNENGAVGVVQFVSPEGIPVTFSYVADANGYQPTGDHIPAIPLHVIRQLEYIRTHPPVDEIRSRRWLEHHHHHH”, with “not soluble”; and “MSFKVISTGPQAIFQDRGRFGFASAGVGTSGSFDRLSAARANHALGNDPNATVVEILLGGFEVEALHTTSIVFTGTEAEVMVRTAGGQSKNATTNTIIDVAAGERIRVEPATYGMRAYFAARGGFAVEKTLGSASTDLISHMGPRPIEPGDVIDVATDIADSQWWPKLRQLPTLWKRMPTETLTVIRGPRDKWFTQESLNNFFTQVFTVSNDSNRIGLRMHSSEPIQHRVEGELKSEGMVRGSIQIPPGGNPVVFGPDHPVTGGYPVIAVLTSRSCDRSAQLLPGDKVRFKLL”, with “not soluble”; and “MSFMDKVKDTANSAYESVENTAVGAKDGVVGAFNTVGEKIGGAYDSTKQYASDKVSAAGDYASEAGKKVGDAEDSMIQGAYDAKDSAKESASNAGNKISNAFTSLKDSITGDNAHKTGEALNDNYESVKESASEAADRLKEPAQNTADNAKDLANQTGEEMSDAFESVKQLTSDTAENAKENAHDAADTAKSYKDKAGEKASGILDSFKAHASDAKDSVENKASDAYNSAKDKAGDAWDSTKDAAGDAKDKTKSFTEKVGDKISGAYDSVKEKASDVADSFKAHSTDSKDNVENKAADAYNTAKDKASDAWDKTKDKAGEAKDKMGDAWDTTKDKAGDAWDTTKDKAGDGKGKAGDAWDTTKDKASDAWDTTKDKAGEAKDKMGEAWDHTKDKAGEAKDKASDAADDAQGKSKSMTEKIGDSISGAWESTKDTAVSAKDKTAEAAGKVGDSISGAYDTVKEKASDIADSFKAHSTDSKDNVENKAADAYNSAKDKASDAWDKTKDKAGDAKDKAADAWDTTKDKAGDAWDSTKDHAADAKDKASDAAGDAKDKSKSLTEKAGDAISGAYDSVKEKASDIADSFKAHSTNSKDNVENKASDAYNSAKDKASDAWDKTKDKAGEAKDKAGDAWDNTKDKAGNAWDSTKDKASDAWDTTKDKASDAKESAGDAADSAKDKSKSITETIGDKISGAYDSVKEKASDVADSFKAHSSDAQDTVEVSHHKYFNVFSSFE”, with “soluble”. For the sequence “MSFSADEVRFLAQSEREIAEMTADLDLSKKSMISDVATLRKHFGDFGRAVAELAGARRSAVGKLPQDWLMCQESAQQTTPPAVSAERARRLKTALGENVIVHDVTCSIGTEGHELIDAGLRYLGSDLDFSRTLMAAHNLQGKNALIFRADALQPASRGADVIIADPARRAGGKRITNPAQLLPPLPSLLDAWINQPLAVKCAPGLDFSEWPGLVSIASVDGGVKEACLYTTDLADGETREAIVIKDGLIDRITNFEDDATGQDLAAAPGEFIIDPDGAIVRAGLVRHYAVREQLWMLDERIAYLTGNRIPEGTSGFRFIEEVPLKKLKSAMAAHDAGAVEILVRGVDVDPDQLRKRLQLKGTKAMSVVITRIGSRGVALICGPRERA”, the “soluble on expression in E. coli” value is given as “not soluble”. Then “MSFVPCTTAIYAFSKNHQPVRTVQSGETFVIETYDCFQNQITSSETPFDSIDWNHINPATGPIYIEGAEPGDILAVKIEQIRLKGQGVMAVGPGLGVLGDRIPQFEAKMIPVEENRAVFDEHLSIPLNPMIGVIGVAPSGEDVSCGTPGPHGGNMDTKLITTGATVYFPVFVKGALFALGDLHAAMGDGEIGVSGIEISGEVTVTVRVMKGYSLNHPLLQNDDGIATIVSAKTLDEAVKQSVEEMVNLLLPHTPLTLNHLTMVLSAVGQTQISQVVDPLVTARFFVPRFVLEAYGIRLFED”, with “not soluble”.
